# B1: 1ZHC (parent)
# chain: HEFRDEISVLKANNPHFDKIFEKHNQLDDDIKTAEQQNASDAEVSHMKKQKLKLKDEIHSMIIEYREK
# Variants of: B1
# Assay: folding stability dG (cDNA display proteolysis); higher = more stable
# Conditions: PBS, room temperature
row,Variant,folding stability dG [kcal/mol]
1,HEFRDEISVLKFNNPHFDKIFEKHNQLDDDIKTAEQQNASDAEVSHMKKQKLKLKDEIHSMIIEYREK [A12F],0.361
2,HEFRDEISVLKWNNPHFDKIFEKHNQLDDDIKTAEQQNASDAEVSHMKKQKLKLKDEIHSMIIEYREK [A12W],-0.494
3,HEFRDEISVLKDNNPHFDKIFEKHNQLDDDIKTAEQQNASDAEVSHMKKQKLKLKDEIHSMIIEYREK [A12D],0.188
4,HEFRDEISVLKMNNPHFDKIFEKHNQLDDDIKTAEQQNASDAEVSHMKKQKLKLKDEIHSMIIEYREK [A12M],0.648
5,HEFRDEISVLKGNNPHFDKIFEKHNQLDDDIKTAEQQNASDAEVSHMKKQKLKLKDEIHSMIIEYREK [A12G],0.257
6,HEFRDEISVLKPNNPHFDKIFEKHNQLDDDIKTAEQQNASDAEVSHMKKQKLKLKDEIHSMIIEYREK [A12P],-0.496
7,HEFRDEISVLKENNPHFDKIFEKHNQLDDDIKTAEQQNASDAEVSHMKKQKLKLKDEIHSMIIEYREK [A12E],0.524
8,HEFRDEISVLKLNNPHFDKIFEKHNQLDDDIKTAEQQNASDAEVSHMKKQKLKLKDEIHSMIIEYREK [A12L],0.297
9,HEFRDEISVLKTNNPHFDKIFEKHNQLDDDIKTAEQQNASDAEVSHMKKQKLKLKDEIHSMIIEYREK [A12T],0.659
10,HEFRDEISVLKSNNPHFDKIFEKHNQLDDDIKTAEQQNASDAEVSHMKKQKLKLKDEIHSMIIEYREK [A12S],0.404
11,HEFRDEISVLKYNNPHFDKIFEKHNQLDDDIKTAEQQNASDAEVSHMKKQKLKLKDEIHSMIIEYREK [A12Y],0.632
12,HEFRDEISVLKINNPHFDKIFEKHNQLDDDIKTAEQQNASDAEVSHMKKQKLKLKDEIHSMIIEYREK [A12I],0.482
13,HEFRDEISVLKQNNPHFDKIFEKHNQLDDDIKTAEQQNASDAEVSHMKKQKLKLKDEIHSMIIEYREK [A12Q],0.395
14,HEFRDEISVLKVNNPHFDKIFEKHNQLDDDIKTAEQQNASDAEVSHMKKQKLKLKDEIHSMIIEYREK [A12V],0.253
15,HEFRDEISVLKNNNPHFDKIFEKHNQLDDDIKTAEQQNASDAEVSHMKKQKLKLKDEIHSMIIEYREK [A12N],0.287
16,HEFRDEISVLKHNNPHFDKIFEKHNQLDDDIKTAEQQNASDAEVSHMKKQKLKLKDEIHSMIIEYREK [A12H],0.398
17,HEFRDEISVLKCNNPHFDKIFEKHNQLDDDIKTAEQQNASDAEVSHMKKQKLKLKDEIHSMIIEYREK [A12C],1.42
18,HEFRDEISVLKKNNPHFDKIFEKHNQLDDDIKTAEQQNASDAEVSHMKKQKLKLKDEIHSMIIEYREK [A12K],1.07
19,HEFRDEISVLKRNNPHFDKIFEKHNQLDDDIKTAEQQNASDAEVSHMKKQKLKLKDEIHSMIIEYREK [A12R],0.983
20,HEFRDEISVLAANNPHFDKIFEKHNQLDDDIKTAEQQNASDAEVSHMKKQKLKLKDEIHSMIIEYREK [K11A],0.308
21,HEFRDEISVLIANNPHFDKIFEKHNQLDDDIKTAEQQNASDAEVSHMKKQKLKLKDEIHSMIIEYREK [K11I],0.839
22,HEFRDEISVLPANNPHFDKIFEKHNQLDDDIKTAEQQNASDAEVSHMKKQKLKLKDEIHSMIIEYREK [K11P],-0.825
23,HEFRDEISVLFANNPHFDKIFEKHNQLDDDIKTAEQQNASDAEVSHMKKQKLKLKDEIHSMIIEYREK [K11F],0.176
24,HEFRDEISVLQANNPHFDKIFEKHNQLDDDIKTAEQQNASDAEVSHMKKQKLKLKDEIHSMIIEYREK [K11Q],0.591
25,HEFRDEISVLYANNPHFDKIFEKHNQLDDDIKTAEQQNASDAEVSHMKKQKLKLKDEIHSMIIEYREK [K11Y],-0.334
26,HEFRDEISVLSANNPHFDKIFEKHNQLDDDIKTAEQQNASDAEVSHMKKQKLKLKDEIHSMIIEYREK [K11S],0.169
27,HEFRDEISVLTANNPHFDKIFEKHNQLDDDIKTAEQQNASDAEVSHMKKQKLKLKDEIHSMIIEYREK [K11T],-0.058

row,Variant,folding stability dG [kcal/mol]
1,HEFRDEISVLVANNPHFDKIFEKHNQLDDDIKTAEQQNASDAEVSHMKKQKLKLKDEIHSMIIEYREK [K11V],0.083
2,HEFRDEISVLWANNPHFDKIFEKHNQLDDDIKTAEQQNASDAEVSHMKKQKLKLKDEIHSMIIEYREK [K11W],-0.052
3,HEFRDEISVLLANNPHFDKIFEKHNQLDDDIKTAEQQNASDAEVSHMKKQKLKLKDEIHSMIIEYREK [K11L],1.07
4,HEFRDEISVLDANNPHFDKIFEKHNQLDDDIKTAEQQNASDAEVSHMKKQKLKLKDEIHSMIIEYREK [K11D],-0.966
5,HEFRDEISVLCANNPHFDKIFEKHNQLDDDIKTAEQQNASDAEVSHMKKQKLKLKDEIHSMIIEYREK [K11C],1.05
6,HEFRDEISVLMANNPHFDKIFEKHNQLDDDIKTAEQQNASDAEVSHMKKQKLKLKDEIHSMIIEYREK [K11M],0.616
7,HEFRDEISVLGANNPHFDKIFEKHNQLDDDIKTAEQQNASDAEVSHMKKQKLKLKDEIHSMIIEYREK [K11G],-0.572
8,HEFRDEISVLRANNPHFDKIFEKHNQLDDDIKTAEQQNASDAEVSHMKKQKLKLKDEIHSMIIEYREK [K11R],1.96
9,HEFRDEISVCKANNPHFDKIFEKHNQLDDDIKTAEQQNASDAEVSHMKKQKLKLKDEIHSMIIEYREK [L10C],0.629
10,HEFRDEISVMKANNPHFDKIFEKHNQLDDDIKTAEQQNASDAEVSHMKKQKLKLKDEIHSMIIEYREK [L10M],-0.173
11,HEFRDEISVAKANNPHFDKIFEKHNQLDDDIKTAEQQNASDAEVSHMKKQKLKLKDEIHSMIIEYREK [L10A],-0.294
12,HEFRDEISVWKANNPHFDKIFEKHNQLDDDIKTAEQQNASDAEVSHMKKQKLKLKDEIHSMIIEYREK [L10W],-0.69
13,HEFRDEISVIKANNPHFDKIFEKHNQLDDDIKTAEQQNASDAEVSHMKKQKLKLKDEIHSMIIEYREK [L10I],0.415
14,HEFRDEISVSKANNPHFDKIFEKHNQLDDDIKTAEQQNASDAEVSHMKKQKLKLKDEIHSMIIEYREK [L10S],-0.995
15,HEFRDEISVVKANNPHFDKIFEKHNQLDDDIKTAEQQNASDAEVSHMKKQKLKLKDEIHSMIIEYREK [L10V],-0.406
16,HEFRDEISVYKANNPHFDKIFEKHNQLDDDIKTAEQQNASDAEVSHMKKQKLKLKDEIHSMIIEYREK [L10Y],-0.44
17,HEFRDEISVGKANNPHFDKIFEKHNQLDDDIKTAEQQNASDAEVSHMKKQKLKLKDEIHSMIIEYREK [L10G],-0.111
18,HEFRDEISRLKANNPHFDKIFEKHNQLDDDIKTAEQQNASDAEVSHMKKQKLKLKDEIHSMIIEYREK [V9R],1.01
19,HEFRDEISSLKANNPHFDKIFEKHNQLDDDIKTAEQQNASDAEVSHMKKQKLKLKDEIHSMIIEYREK [V9S],0.824
20,HEFRDEISMLKANNPHFDKIFEKHNQLDDDIKTAEQQNASDAEVSHMKKQKLKLKDEIHSMIIEYREK [V9M],1.07
21,HEFRDEISKLKANNPHFDKIFEKHNQLDDDIKTAEQQNASDAEVSHMKKQKLKLKDEIHSMIIEYREK [V9K],1.37
22,HEFRDEISWLKANNPHFDKIFEKHNQLDDDIKTAEQQNASDAEVSHMKKQKLKLKDEIHSMIIEYREK [V9W],2.46
23,HEFRDEISNLKANNPHFDKIFEKHNQLDDDIKTAEQQNASDAEVSHMKKQKLKLKDEIHSMIIEYREK [V9N],0.901
24,HEFRDEISLLKANNPHFDKIFEKHNQLDDDIKTAEQQNASDAEVSHMKKQKLKLKDEIHSMIIEYREK [V9L],1.23
25,HEFRDEISTLKANNPHFDKIFEKHNQLDDDIKTAEQQNASDAEVSHMKKQKLKLKDEIHSMIIEYREK [V9T],0.509
26,HEFRDEISQLKANNPHFDKIFEKHNQLDDDIKTAEQQNASDAEVSHMKKQKLKLKDEIHSMIIEYREK [V9Q],1.05
27,HEFRDEISVLKANHPHFDKIFEKHNQLDDDIKTAEQQNASDAEVSHMKKQKLKLKDEIHSMIIEYREK [N14H],-0.133

row,Variant,folding stability dG [kcal/mol]
1,HEFRDEISVLKANFPHFDKIFEKHNQLDDDIKTAEQQNASDAEVSHMKKQKLKLKDEIHSMIIEYREK [N14F],0.397
2,HEFRDEISVLKANEPHFDKIFEKHNQLDDDIKTAEQQNASDAEVSHMKKQKLKLKDEIHSMIIEYREK [N14E],-0.24
3,HEFRDEISVLKANQPHFDKIFEKHNQLDDDIKTAEQQNASDAEVSHMKKQKLKLKDEIHSMIIEYREK [N14Q],-0.421
4,HEFRDEISVLKANAPHFDKIFEKHNQLDDDIKTAEQQNASDAEVSHMKKQKLKLKDEIHSMIIEYREK [N14A],-0.402
5,HEFRDEISVLKANMPHFDKIFEKHNQLDDDIKTAEQQNASDAEVSHMKKQKLKLKDEIHSMIIEYREK [N14M],-0.831
6,HEFRDEISVLKANDPHFDKIFEKHNQLDDDIKTAEQQNASDAEVSHMKKQKLKLKDEIHSMIIEYREK [N14D],0.835
7,HEFRDEISVLKANLPHFDKIFEKHNQLDDDIKTAEQQNASDAEVSHMKKQKLKLKDEIHSMIIEYREK [N14L],-0.009
8,HEFRDEISVLKANIPHFDKIFEKHNQLDDDIKTAEQQNASDAEVSHMKKQKLKLKDEIHSMIIEYREK [N14I],-0.077
9,HEFRDEISVLKATNPHFDKIFEKHNQLDDDIKTAEQQNASDAEVSHMKKQKLKLKDEIHSMIIEYREK [N13T],1.39
10,HEFRDEISVLKARNPHFDKIFEKHNQLDDDIKTAEQQNASDAEVSHMKKQKLKLKDEIHSMIIEYREK [N13R],1
11,HEFRDEISVLKAWNPHFDKIFEKHNQLDDDIKTAEQQNASDAEVSHMKKQKLKLKDEIHSMIIEYREK [N13W],1.06
12,HEFRDEISVLKAGNPHFDKIFEKHNQLDDDIKTAEQQNASDAEVSHMKKQKLKLKDEIHSMIIEYREK [N13G],0.346
13,HEFRDEISVLKAKNPHFDKIFEKHNQLDDDIKTAEQQNASDAEVSHMKKQKLKLKDEIHSMIIEYREK [N13K],0.586
14,HEFRDEISVLKAMNPHFDKIFEKHNQLDDDIKTAEQQNASDAEVSHMKKQKLKLKDEIHSMIIEYREK [N13M],1.33
15,HEFRDEISVLKALNPHFDKIFEKHNQLDDDIKTAEQQNASDAEVSHMKKQKLKLKDEIHSMIIEYREK [N13L],1.44
16,HEFRDEISVLKAQNPHFDKIFEKHNQLDDDIKTAEQQNASDAEVSHMKKQKLKLKDEIHSMIIEYREK [N13Q],1.22
17,HEFRDEISVLKAFNPHFDKIFEKHNQLDDDIKTAEQQNASDAEVSHMKKQKLKLKDEIHSMIIEYREK [N13F],0.565
18,HEFRDEISVLKASNPHFDKIFEKHNQLDDDIKTAEQQNASDAEVSHMKKQKLKLKDEIHSMIIEYREK [N13S],0.889
19,HEFRDEISVLKAYNPHFDKIFEKHNQLDDDIKTAEQQNASDAEVSHMKKQKLKLKDEIHSMIIEYREK [N13Y],0.635
20,HEFRDEISVLKAENPHFDKIFEKHNQLDDDIKTAEQQNASDAEVSHMKKQKLKLKDEIHSMIIEYREK [N13E],0.701
21,HEFRDEISVLKAINPHFDKIFEKHNQLDDDIKTAEQQNASDAEVSHMKKQKLKLKDEIHSMIIEYREK [N13I],1.31
22,HEFRDEISVLKAANPHFDKIFEKHNQLDDDIKTAEQQNASDAEVSHMKKQKLKLKDEIHSMIIEYREK [N13A],0.764
23,HEFRDEISVLKADNPHFDKIFEKHNQLDDDIKTAEQQNASDAEVSHMKKQKLKLKDEIHSMIIEYREK [N13D],0.311
24,HEFRDEISVLKAHNPHFDKIFEKHNQLDDDIKTAEQQNASDAEVSHMKKQKLKLKDEIHSMIIEYREK [N13H],0.775
25,HEFRDEISVLKAVNPHFDKIFEKHNQLDDDIKTAEQQNASDAEVSHMKKQKLKLKDEIHSMIIEYREK [N13V],0.458
